We go through three variants from FireProtDB (doi:10.1016/j.jmb.2004.09.082).

B1: Co-chaperonin GroES, P0A6F9 (parent)
chain: MNIRPLHDRVIVKRKEVETKSAGGIVLTGSAAAKSTRGEVLAVGNGRILENGEVKPLDVKVGDIVIFNDGYGVKSEKIDNEEVLIMSESDILAIVEA

Variants of B1 are the subject of the data set. Particulars: Escherichia coli (strain K12); pH 7.8; 25 °C; GdnHCl; Chromatography; Tris-HCl 5 mM; KCl 200 mM; reversible: yes; structure 1AON; whole UniProt chain shown.

Consider I3C, for which the “ddG of mutation (higher = less stable)” value was determined as 0.4 kcal/mol, the denaturant m value was 2.4 kcal/mol/M and the unfolding free energy turned out to be 1.9 kcal/mol.
In the same order, the values of I3W are 0.4 kcal/mol, 2 kcal/mol/M and 1.9 kcal/mol.
In the same order, the values of V95C are 0.3 kcal/mol, 2.2 kcal/mol/M and 2 kcal/mol.
